Assay results taken from PMC3695229.
Where a chain is given by its changes, count along the chain named.

B1: TGFR-3-ZP(234) (domain or fragment)
chain: REPEEVQGGVNIALSVKCDNEKMVVAVDKDSFQTNGYSGMELTLLDPSCKAKMNGTHFVLESPLNGCGTRHRRSAPDGVVYYNSIVVQAPSPGDSSGWPDGYEDLESGDNGFPGDTDEGETAPLSRAGVVVFQCSLRQLRSPSGFQDQLDGQATFNMELYNTDLFLVPSPGVFSVAENEHVYVEVSVTKADQDLGFAIQTCFISPYSNPDRMSDYTIIENICPKDDSVKFYSSKRVHFPIPHAEVDKKRFSFVFKSVFQTSLLFLHCELTLCSRNKGSQKLPKCVTPDDACTSLDATMIWTMMQNKKTFTKPLAVVLQVDYKENVPNMKESSPVPPPPQIFHGLD
modifications: one remaining potential N-glycosylation site (N491)
B2: murine TGFR-3-ZP (recombinant ZP domain of TGF-β receptor type 3, residues 438-782, including the EHP) (domain or fragment)
chain: B1 chain with Q133N, Q152N, Q259N
modifications: secretory glycoprotein; four potential N-glycosylation sites (positions 491, 570, 589 and 696)

Target: human TGF-β2 (human)
Experiment: SPR; Biacore 2000; biotinylated ligands immobilised on streptavidin-coated CM5 chip, TGFR-3-ZP variants as analytes; 25°C, HBS500 (10 mM HEPES pH 7.4, 500 mM NaCl, 3.4 mM EDTA, 0.005% P20); apparent affinities from equilibrium binding

Binder | Kd
B1 | 2700 nM
B2 | 2400 nM
